{"source": "paper PMC8773746", "target": "Human erythropoietin (Epoetin β) (human) (UniProt P01588)", "assay": "SPR; EPO immobilised by amine coupling on a ProteOn GLH chip (up to 3 000 RU); S100 or CaM as analyte (0.25–4 μM); 25 °C; 10 mM HEPES, 150 mM NaCl, 0.05% TWEEN 20, pH 7.4, 1 mM CaCl2; heterogeneous ligand model, values averaged over analyte concentrations (n = 5)", "data": [{"binder": "Human S100P protein (wild-type) (natural protein) MTELETAMGMIIDVFSRYSGSEGSTQTLTKGELKVLMEKELPGFLQSGKDKDAVDKLLKDLDANGDAQVDFSEFIVFVAAITSACHKYFEKAGL", "values": [{"measurement": "Kd1 (heterogeneous ligand model, ligand population L1)", "value": 540, "unit": "nM"}, {"measurement": "Kd2 (heterogeneous ligand model, ligand population L2)", "value": 1.8, "unit": "µM"}, {"measurement": "ka1 (heterogeneous ligand model, ligand population L1)", "value": 2000, "unit": "M⁻¹ s⁻¹"}, {"measurement": "ka2 (heterogeneous ligand model, ligand population L2)", "value": 16000, "unit": "M⁻¹ s⁻¹"}, {"measurement": "kd1 (heterogeneous ligand model, ligand population L1)", "value": 0.0011, "unit": "s⁻¹"}, {"measurement": "kd2 (heterogeneous ligand model, ligand population L2)", "value": 0.028, "unit": "s⁻¹"}]}]}
